Data as given in paper PMC3127822.

How the values were obtained:
[1] = biological target: GST-tagged CC1 fragment from the dynactin subunit p150Glued; assay: pull-down; 1 ug/ul GST-NudE or GST-CC1 with glutathione agarose 4B and pre-cleared whole brain lysate of P0 wild-type or Loa/Loa mice; phosphate-glutamate buffer (10 mM sodium phosphate, 100 mM sodium glutamate, pH 7.0, 1 mM MgSO4, 1 mM EDTA, 1 mM DTT, 0.2% NP-40), 4°C, 2 hours; western blot of supernatants and pellets
[2] = biological target: recombinant glutathione S-transferase (GST) NudE (UniProt Q9CZA6); assay: as above
UniProt Q9CZA6, sequence (Q9CZA6 whole entry): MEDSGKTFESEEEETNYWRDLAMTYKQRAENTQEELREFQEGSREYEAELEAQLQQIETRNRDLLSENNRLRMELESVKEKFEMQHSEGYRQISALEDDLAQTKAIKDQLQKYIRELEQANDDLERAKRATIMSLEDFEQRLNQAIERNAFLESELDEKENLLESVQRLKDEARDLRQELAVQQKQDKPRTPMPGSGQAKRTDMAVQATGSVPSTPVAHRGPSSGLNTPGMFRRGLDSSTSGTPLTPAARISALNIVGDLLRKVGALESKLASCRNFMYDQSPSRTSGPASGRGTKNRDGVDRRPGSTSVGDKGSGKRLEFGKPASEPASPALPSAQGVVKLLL

Loa/Loa mutant cytoplasmic dynein (from UniProt Q9JHU4 1-4644; O88485 1-628) (complex)
percent of heavy chain in the pellet [1]: 40.7% | percent of heavy chain in the NudE pellet [2]: 57.7%

wild-type cytoplasmic dynein (from UniProt Q9JHU4 1-4644; O88485 1-628) (complex)
percent of heavy chain in the pellet [1]: 45.3% | percent of heavy chain in the NudE pellet [2]: 66.2%
